Laboratory results published in patent US20060057144A1 (published 2006).

B1: PsFcγRIIa (recombinant soluble human FcγRIIa protein produced in baculovirus-infected Sf-21 cells) (receptor)
chain: APPKAVLKLEPPWINVLQEDSVTLTCQGARSPESDSIQWFHNGNLIPTHTQPSYRFKANNNDSGEYTCQTGQTSLSDPVHLTVLFEWLVLQTPHLEFQEGETIMLRCHSWKDKPLVKVTFFQNGKSQKFSHLDPTFSIPQANHSHSGDYHCTGNIGYTLFSSKPVTITVQV
notes: Amplified from FcγRIIa LR cDNA; also called PsFc.RIIa; soluble FcγRIIa

Assays:
[1] = target: B1; assay: SPR; FcγRIIa (50 µg/mL) premixed with a range of hexapeptide concentrations, passed over immobilised IgG3; against no peptide
Description: (§1) At the conclusion of the concentration dependence measurements all surfaces were regenerated using 50 mM diethylamine (pH 11.5), 1 M NaCl. The total response measured for each concentration of peptide was determined and plotted against the peptide concentration. The non-specific binding responses (IgE channel) were subtracted from binding to IgG1 or IgG3.

[2] = target: B1; assay: SPR; FcγRIIa (50 µg/mL) premixed with a range of hexapeptide concentrations, passed over immobilised IgG1; against no peptide
Description: as §1

monomeric human IgG1 [3] = target: T1, monomeric human IgG1 (human); assay: SPR equilibrium, two site fit, immobilised IgG1; remaining 10% of the sites
T1 construct: Immobilised by amine coupling on a CM5 chip
Description: (§2) About 4000 to about 6000 response units (RU) of monomeric human immunoglobulin subclasses IgG1, IgG2, IgG3, and IgE (50 ug/ml of each) were covalently coupled to separate carboxymethylated dextran surface of each CM5 sensor-chips (available from BIAcore, Uppsala, Sweden) using a amine coupling kit (available from BIAcore), according to manufacturer's methods. […] Following administration of the protein, the immunoglobulin surface was regenerated on each chip using a buffer containing 50 mM diethylamine pH 11.5, and 1 M NaCl. […] Data points obtained from the IgE channels were subtracted to correct for refractive index differences.

monomeric human IgG3 [4] = target: T2, monomeric human IgG3 (human, UniProt P01860-1 1-377); assay: SPR equilibrium, two site fit, immobilised IgG3; remaining 50% of the sites
T2 construct: Immobilised by amine coupling on a CM5 chip
T2 sequence (P01860 other isoform, or with tags, fused parts or gaps): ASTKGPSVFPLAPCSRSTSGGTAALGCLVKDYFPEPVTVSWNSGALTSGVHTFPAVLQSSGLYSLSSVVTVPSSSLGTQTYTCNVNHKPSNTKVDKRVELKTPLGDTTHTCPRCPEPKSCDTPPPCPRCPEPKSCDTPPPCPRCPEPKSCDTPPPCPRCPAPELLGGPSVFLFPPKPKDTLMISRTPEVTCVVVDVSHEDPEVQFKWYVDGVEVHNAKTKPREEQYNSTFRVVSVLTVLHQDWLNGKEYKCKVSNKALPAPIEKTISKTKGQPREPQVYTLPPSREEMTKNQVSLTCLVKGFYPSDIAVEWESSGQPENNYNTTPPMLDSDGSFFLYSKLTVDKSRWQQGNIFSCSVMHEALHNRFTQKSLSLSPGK
Description: as §2

monomeric human IgG1 [5] = target: T1, monomeric human IgG1; assay: SPR equilibrium, two site fit, immobilised IgG1; about 90% of the sites
Description: as §2

monomeric human IgG3 [6] = target: T2, monomeric human IgG3; assay: SPR equilibrium, two site fit, immobilised IgG3; 50% of the sites
Description: as §2

Binder	fold enhancement of FcγRIIa binding to IgG3 [1] [fold]	fold enhancement of FcγRIIa binding to IgG1 [2] [fold]	Ka (monomeric human IgG1 [3]) [M⁻¹]	Ka (monomeric human IgG3 [4]) [M⁻¹]	Ka (monomeric human IgG1 [5]) [M⁻¹]	Ka (monomeric human IgG3 [6]) [M⁻¹]
Ac-FQNGKS-NH2 [acetylated hexapeptide of sequence FQNGKS (Ac-Phe-Gln-Asn-Gly-Lys-Ser-NH2)]	1.6	4				
B1			~23000	~12000	~2.1e+06	~2.7e+06
